The values that follow come from the DeepSol protein solubility set.

A short description of this series: soluble on expression in E. coli; label from the status in PepcDB or PDB records.
“MLIILLLTVLTVYLVYELYWKRRNFPPGPCPLPVFGNLLSIANPPPGYEAFERWTKKYGDIYTFWIGNTPHIMINTWDKIKETYIRDAETYTNKVRLPALDLFRGGEYGIIDSNGATWREHRRFALSTMRDFGLGKNLMQENILMEVQDVFARLDAKLGSETDIPEVFDHAVANVVNQLLFGYRFVGPKESEYQELKRIIEAPTDLFGKPHMFLAMNIPVIAKLMPEFMYEGPFKDFRDTAFAFFNKQIEAHRQEVDLNDLNSESTDFVETFLKEQKRRESEGDSETFSNVQLSNVCMDLWFAGLNTTTNTITWAISYILHHPEVQDKVHEEMDKVIGSDRLITTADKNDLPYFNAFINEAQRGINIVPLNLQHATTRDTVINGFKIPKGTGVVAQISTVMNNEEVFPDPHTFNPDRFIDEHGKLKRVEELAPFSVGKRSCPGEGLARMELFLFIANFLNRYKIYPSKEGPPSMDKSNGALIAPRLFSATLKRRS”: the “soluble on expression in E. coli” value is “not soluble”.
Turning to “MGSDKIHHHHHHVQKMAEGSHSAITLEAGKYRATVDPLGAALRTLHWGERELVWGYPEGRPQLAQGQILLPWPNRIDHGRYSFGGTTYQLEITEPELDNAIHGLTSTLLWQPSQITADSVRFTLAFDGAPGYPFRMEFWVCYSLDPDHGLHVRIGAQNTGDGPAPYGHGSHNYLTLGLPVDEVTLQLPAAEWQPVNERMIPTGPVRSVAGTDYDFRTPRQVGPTVLDTAFTGLRFDEAGRSWTVLSAGELCVGLWADDSHPWLQVFSADYPGPERRRHLAVEPMTCPPNAFVTGTDLIVLDPGQSIESSFGITSTPE”, the “soluble on expression in E. coli” value is listed as “not soluble”.
With “EETIPLQTLRCYNDYTSHITCRWADTQDAQRLVNVTLIRRVNEDLLEPVSCDLSDDMPWSACPHPRCVPRRCVIPCQSFVVTDVDYFSFQPDRPLGTRLTVTLTQHVQPPEPRDLQISTDQDHFLLTWSVALGSPQSHWLSPGDLEFEVVYKRLQDSWEDAAILLSNTSQATLGPEHLMPSSTYVARVRTRLAPGSRLSGRPSKWSPEVCWDSQPGDEAQPQNLECFFDGAAVLSCSWEVRKEVASSVSFGLFYKPSPDAGEEECSPVLREGLGSLHTRHHCQIPVPDPATHGQYIVSVQPRRAEKHIKSSVNIQMAPPSLQVTKDGDSYSLRWETMKMRYEHIDHTFEIQYRKDTATWKDSKTETLQNAHSMALPALEPSTRYWARVRVRTSRTGYNGIWSEWSEARSWDTES”, the “soluble on expression in E. coli” value is reported as “soluble”.
Under “MTEEQFSSYHPPLPPTTEEDRFSWLRLLRSRRVGPTTFRRLMHEHGTAQNALAALPEVARAAGVEGYEICPPGVVEAELKAAKAAKARLLCLGDADYPSHLAGISDAPPLLWLLGDPALLRRPMIALVGARNASSLGTRMARALAQDLGTAGFVVVSGLARGIDTAAHLAALPSGTIAVMAGGVDTVYPAENTHLAADIAQHGLRLSEQPMRLTPQARHFPRRNRIISGLAQAVVVVEAAAKSGSLITARDALDQGREVLAVPGHPFDARAAGCNMLIRDGAHLVRNAEDVITALPALTAPQPQPDLCDLMQQPAPPAKRSLRETVALHSLILDRLGPSPVAEDQLIRDLAASPGEVAPVLVDLELEGRINRQAGGLLSRVN” stands “not soluble”; under “MKNVGDLMQRLQKMMPAHITPAFKTGEELLAWQKEQGEIRAAALARENRAMKMQRTFNRSGIRPLHQNCSFDNYRVECDGQMNALSKARQYVDEFDGNIASFVFSGKPGTGKNHLAAAICNELLLRGKSVLIITVADIMSAMKDTFSNRETSEEQLLNDLSNVDLLVIDEIGVQTESRYEKVIINQIVDRRSSSKRPTGMLTNSNMEEMTKMLGERVMDRMRLGNSLWVNFTWDSYRSRVTGKEYLEHHHHHH”, “soluble”.
To “MDEFYISIETVGNNIVERYIDENGKERTREVEYLPTMFRHCKEESKYKDIYGKNCAPQKFPSMKDARDWMKRMEDIGLEALGMNDFKLAYISDTYGSEIVYDRKFVRVANCDIEVTGDKFPDPMKAEYEIDAITHYDSIDDRFYVFDLLNSMYGSVSKWDAKLAAKLDCEGGDEVPQEILDRVIYMPFDNERDMLMEYINLWEQKRPAIFTGWNIEGFDVPYIMNRVKMILGERSMKRFSPIGRVKSKLLQNMYGSKEIYSIDGVSILDYLDLYKKFAFTNLPSFSLESVAQHETKKGKLPYDGPINKLRETNHQRYISYNIIDVESVQAIDKIRGFIDLVLSMSYYAKMPFSGVMSPIKTWDAIIFNSLKGEHKVIPQQGSHVKQSF” belongs “soluble”; to “MAHHHHHHMHQHGKTSGTDGSGATVSQSSSGFMETPWRIFEYGVASEQGSRKTMEDQHAMVAESFPFFAVYDGHGGTQCAEFLRDNLHTFIFGQPEIETDPERATRAGIAEAENAFLTKCADEKIESGSTCAVALVVDDTLIAGNVGDSEIVLCRAGAPIVLSTKHSIQDNVSEGERVKACGGRIISNRVGHPKFNPQLLSLAITRAIGDAGFKLREFTDGKPSGVIADAETRSTRLTDDDKFLIIGCDGLWDVMSYEAAVQLCSRLASEGETPKAIAGSLCQEALRQGSTDNVTCIYINIRAKSSAPGCGQLGSGDPLHNM”, “soluble”; to “MVTKFLIFVSENQQLTSKFNLVTRQNADLKIGLRGVLFSIQGLREELSVAKQRIEEMKEDSFFESMPKLEREAPAFMDSPAETSSPDVEMEDVVYEEVVKETEVANF”, “not soluble”.
For the sequence “MTRKPLTLTGSALAVLRALVERGPSTRPQLGQDLGLSRPTMSAAMAELMEAGLVEPIGSVQGGMGRRAVEYRVATHAGHVIAVDAGSTHIRLRLSTLDRRLLHASLHPLPNSQYSLTPQISSVVADAVAEALEKTEVDWGPLLAMVIAIPTRVVGPEGDTAATDQEVIFTNFTPPPQVDCTLVNNVNCAAVAEYHYGAARGHQTFAFLQVGVKIGLGLMLNGQILPGVNGAAGEIGHITFPFAPGLTPVPGEAERYIGTEAFMARVRADWPKGSGRPPADTYELLARAGEGDAAALRHVEGHAAEIGAVIAICVSVIDPGLVVLGGGYGASPLLRPKVEEVVRHLAFPAEITTSTLAAEATVLGAERLAVDRAVSVLLGLPA”, the “soluble on expression in E. coli” value is listed as “not soluble”.
Regarding “MGSSHHHHHHSSGLVPRGSHMGSSHHHHHHSSGLVPRGSHMSQLAHNLTLSIFDPVANYRAARIICTIGPSTQSVEALKGLIQSGMSVARMNFSHGSHEYHQTTINNVRQAAAELGVNIAIALDTKGPEIRTGQFVGGDAVMERGATCYVTTDPAFADKGTKDKFYIDYQNLSKVVRPGNYIYIDDGILILQVQSHEDEQTLECTVTNSHTISDRRGVNLPGCDVDLPAVSAKDRVDLQFGVEQGVDMIFASFIRSAEQVGDVRKALGPKGRDIMIICKIENHQGVQNIDSIIEESDGIMVARGDLGVEIPAEKVVVAQKILISKCNVAGKPVICATQMLESMTYNPRPTRAEVSDVANAVFNGADCVMLSGETAKGKYPNEVVQYMARICLEAQSALNEYVFFNSIKKLQHIPMSADEAVCSSAVNSVYETKAKAMVVLSNTGRSARLVAKYRPNCPIVCVTTRLQTCRQLNITQGVESVFFDADKLGHDWGKEHRVAAGVEFAKSKGYVQTGDYCVVIHADHKVKGYANQTRILLVE”, the “soluble on expression in E. coli” value was “soluble”.
Regarding “VAADAYLVRRGQETKRGSGKGGASKGTPRGLSVIAGYPWFADWGRDAMIALSGLTLVTGRFEDARELLLTFLGQRRRGLIPNHFDESGQGAGYNTVARPLWLAVALERYARTTGDALFVRQALPMLRELLGSLVQGTDYGIGMDPADALLRAGEPGVQLTWMDVKIHDWVVTPRHGKPVEIQALWLAALGAELRLSQALGEPPRYAAVLERAHHSFKAQFWNHAADLTAAPTATLLGLGQLGSSLGGALSDALDGDFVLDDEPRRDTSSDALLTVGGRPGSGPVQSTTGASELGVGHRPGAAPAQPAVLADVIQPSGEQDLSVRPNAVIALALADTPVVDEQLDAVLAQTERELLTPVGLHTLSPHDPRYLGNYGGPQLLRDAAYHQGTVWPWPLASYVELLLSRGELNRARAALAGLTGHVWEAGIGHVSEVFSGDALTPGGCPFQAWSVAELLR”, the “soluble on expression in E. coli” value was “not soluble”.
As for “SLDPLFTTQILKYKGDESFTCNDTLVREIKLEIFINDEKVGALMATPVDEQALAIGYLMSENIIAKVSDIESIETKDDGMSVHIKAKIDKENLAKLNAEGVVISGCGRAHTANIDPEAIEASKISSDAKFSKDEILKQMSTFYTQCELYEKTGCVHTAKLFVDEKTFFIGEDIAQHNTIDKALGKACLAGVDLSQCFLMVSGRLSSEMVAKAVMHKIPVLVSRTAPTCLGVMIARKFDLTLCGFARENKINIYSGEFRIHG”, the “soluble on expression in E. coli” value is given as “soluble”.
Under “MSLQIQNLTKQFGESKAVNSLQISLPKGEVLGLLGRNGAGKTTTIKMLLGLLTPNEGSITWDGKTFGTSGVTIGYLPEERGLYTKSRVIDQLRYFGRLEGMAKKEVDLAIDHWLDRLAIPEYKFKTAGELSKGNQQKIQLIAALLHNPELLILDEPFSGLDPVNAGMLASIIEEQVQSGKTIILSSHRMEQVEAFCQHVCILKKGEAVVKGQLSDIKKEYGFRNLTIEDTEENEKGLQAIHVSYEKQQGLLYVKVQDDAEALNILQQLQEQGVTLRQFKMLEPTLNEIFVERAK” stands “not soluble”; under “MSLKKIMEYLQHYINQYPHRLALVFEDRHLTYGELSKEIYQASMRYKEVKLNEKVGLMDDHPVNNIINYFAVHQRGGIPCIFNHQWSNERIHQLVKSYDIQWLIKDNHLTLNHDDSIYNDEVIPRNVIHIGFTSGTTGLPKAFYRNEHSWIVSFKENEKLLQHCEETIVAPGPLSHSLSLYACIYALSTGKTFIGQKNFNPLSLMRLINQLNKATAIFVVPTMVQQLISTQRHCSSIKSILSSGAKLTLQQFQQISTLYPQANLIEFFGTSEASFISYNFNQSSPAHSVGKLFPHVETRLLNQDDDAVGLLAVRSEMVFSGYVGQSNQEGSWIKTGDFAYIKNQHLFLVGRESDRIIVGGINVYPTAIESLIMDIEGIDEALVIGIPHAKFGEIAILLYSGKVQLNYRQIKSFLMKQLSRQEVPSKLKKIDHMIYTESGKIARKEMKNKFINGEGHHHHHH”, “not soluble”.
Turning to “LLRGLLASIEHGINRVLRLDSTALPRLARLSGHVIAVDCRDPSLKIFILPSDEGLLLAADWAADADCTLRAPASSLLRLALSKDKTAVLHGPDVELEGDSGVLLELTGILQDLELDWEHELSNWVGPVASQLFSSRVRSSGRWTRESFTSLSQNVADYLSEESRTLVGNHEAEARFAELDRIKLDLDRLEARFARLAHFLNT”, the “soluble on expression in E. coli” value was “not soluble”.
To “GWIQELTAGHAEHTPETEEYGISSFVYKRRLPFHSTRFYRWLDQMPKNVVRAKGIVWCASHNNLALLMSQAGPSVTIEPVSYWVAALPKLEQEQVKQQEPEILEEWDPEFGDRLTQLVFIGTDLDEETITKELDQCLLTEYEFDSDWSLFEDPFKWKLNQ” belongs “not soluble”; to “MNHLPVVGEDYVEIPDGRPFAPLAGKIEVVEIFGYTCPHCAHFDSKLQAWGARQAKDVRFTLVPAVFGGVWDPFARAYLAADVLGVAKRSHTAMFEAIHEKGSVPIQNVGPDELAVFYAGYGVQPDRFVATFNGPEVEKRFQAARAYALKVRPVGTPTIVVNGRYMVTGHDFEDTLRITDYLVSRERAASHGR”, “soluble”; to “MSLNPPYTIVFALYPGVTQLDFTGPLEFLSKLPHARCVLASSRGEDIRADGGIVFADIARLGAIERCDLLLVPGGLGTIEAMEDAELLAQLRRLAASADYVSSVCTGSLLLGAAGLLKGRRAACHWAWLDSLAAFGAQPCPDRVVVDGKLISGGGVTAGIDMALTLMAEIAGPQFAQTAQLTLEYAEGHHHHHH”, “not soluble”.
“GAMDPREVILCKDQDGKIGLRLKSIDNGIFVQLVQANSPASLVGLRFGDQVLQINGENCAGWSSDKAHKVLKQAFGEKITMTIRDRPFERTITMHKDSTGHVGFIFKNGKITSIVKDSSAARNGLLTEHNICEINGQNVIGLKDSQIADILSTSGTVVTITIMPAF”: the “soluble on expression in E. coli” value was “soluble”.
